According to article doi:10.1101/749432 (2019):

B1: synthetic binder (cys2 variant of design 469) (designed binder)
chain: NNWEQQKKNIEDDLDRYKKRAEELRKEAEKARKEARKTEDPTEEAKKEWEKRCKELEERARKLEDEAKDRVNDLFDSNFFQVIYSGDNDEEEWKKEKDRAEKEIEEWFKRIKEKCEEIKKRLEQ
modifications: biotin on the BAP tag (BirA)
B2: endothelial protein C receptor (EPCR), residues 16 to 210, biotinylated on the BAP tag (receptor)
chain: FCSQDASDGLQRLHMLQISYFRDPYHVWYQGNASLGGHLTHVLEGPDTNTTIIQLQPLQEPESWARTQSGLQSYLLQFHGLVRLVHQERTLAFPLTIRCFLGCELPPEGSRAHVFFEVAVNGSSFVSFRPERALWQADTQVTSGVVTFTLQQLNAYNRTRYELREFLEDTCVQYVQKHISAENTKGSQTSRSYTS

What was measured:
[1] = target: B2; experiment: SPR
[2] = target: HB3var03 CIDRα1.4 domain (E. coli, refolded) (Plasmodium falciparum); experiment: SPR; wild type, data from ref. 8

Binder | koff [1] [s⁻¹] | Kd [2] [nM] | koff [2] [s⁻¹]
B1 | 0.000131 | – | –
B2 | – | 0.4 | 0.000197
